Experiment [1] concerns the target T1, CXCL12 (UniProt P48061 22-93). The experiment in a line: graphene field-effect transistor array.
Experiment [2] has as its target T1, CXCL12. The experiment in a line: graphene field-effect transistor array. The source holds these as a separate data set.

Where two headings read alike, the source gives them in different places.

T1 sequence (P48061 22-93): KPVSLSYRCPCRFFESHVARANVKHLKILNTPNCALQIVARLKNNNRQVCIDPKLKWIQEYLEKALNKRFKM

B1: CXCR4^QTY-Fc (Fc fusion)
chain: PSTCSKPTCPPPELLGGPSVFIFPPKPKDTLMISRTPEVTCVVVDVSQDDPEVQFTWYINNEQVRTARPPLREQQFNSTIRVVSTLPITHQDWLRGKEFKCKVHNKALPAPIEKTISKARGQPLEPKVYTMGPPREELSSRSVSLTCMINGFYPSDISVEWEKNGKAEDNYKTTPAVLDSDGSYFLYNKLSVPTSEWQRGDVFTCSVMHEALHNHYTQKSISRSPGK
modifications: RED-NHS fluorescent label (Monolith NT Protein Labeling Kit RED-NHS), in the MST only
Turning to B1, the results for the Kd with CXCL12 [1] and with CXCL12 [2] were 20.1 ± 9.1 nM and 24.8 ± 13 nM, respectively.
